Results published in article PMC6142190, “FIH permits NAA10 to catalyze the oxygen-dependent lysyl-acetylation of HIF-1α” (Redox Biology, 2018).

Biological target: T1, GST-FIH (human, UniProt Q9NWT6 1-349)
T1 construct: human FIH, cDNA NM_017902.2 in pGEX; also called recombinant FIH
Experiment: pull-down; GST-FIH and His-NAA10 WT or W38F in binding buffer, 4 °C, 1 h; nickel affinity beads; Western blot
Details: both partners purified

T1 sequence (Q9NWT6 whole entry): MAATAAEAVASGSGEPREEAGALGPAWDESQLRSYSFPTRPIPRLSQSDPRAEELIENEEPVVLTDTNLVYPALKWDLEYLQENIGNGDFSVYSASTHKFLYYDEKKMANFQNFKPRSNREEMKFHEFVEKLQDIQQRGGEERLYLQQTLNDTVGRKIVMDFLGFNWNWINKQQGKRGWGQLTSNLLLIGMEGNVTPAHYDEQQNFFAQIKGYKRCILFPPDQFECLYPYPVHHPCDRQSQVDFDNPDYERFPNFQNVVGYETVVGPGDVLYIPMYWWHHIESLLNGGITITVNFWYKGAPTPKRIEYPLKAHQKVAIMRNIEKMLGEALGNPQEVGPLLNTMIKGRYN

B1: His(6)-NAA10 W38F (enzyme, human, UniProt P41227-1 1-235, looked up)
chain: MNIRNARPEDLMNMQHCNLLCLPENYQMKYYFYHGLSFPQLSYIAEDENGKIVGYVLAKMEEDPDDVPHGHITSLAVKRSHRRLGLAQKLMDQASRAMIENFNAKYVSLHVRKSNRAALHLYSNTLNFQISEVEPKYYADGEDAYAMKRDLTQMADELRRHLELKEKGRHVVLGAIENKVESKGNSPPSSGEACREEKGLAAEDSGGDSKDLSEVSETTESTDVKDSSEASDSAS
notes: human NAA10, cDNA NM_003491 in pET-28c-HIS, with W38F by PCR-based mutagenesis; also called W38F mutant; source: E. coli BL21, purified (Nickel-NTA beads, eluted with imidazole)
  binding result: binds
